Here are results for 7 substances from the supplement of paper PMC5998384.

Series [1] relates to HeLa Kyoto. Put plainly: melting temperature (median over replicates), in situ; higher = more thermally stable.
Series [2] deals with HeLa Kyoto. Nature of the series: solubility change mitosis vs G1/S (difference of NP-40 vs SDS log2 ratios) (log2 ratio difference); higher = more soluble in mitosis.
For series [3], the system named is HeLa Kyoto. Put plainly: thermal stability score vs G1/S (z-score of summed log2 fold changes over temperatures); higher = more thermally stable than in G1/S.
For series [4], the system named is HeLa Kyoto. Nature of the series: solubility in G1/S (NP-40 vs SDS abundance) (log2 ratio); higher = more soluble. Particulars: cell cycle stage: G1/S.
The mark [5] stands for this setting: cell cycle stage: early G1 (4.5 h after nocodazole release).
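Wherever melting temperature (median over replicates), in situ is given: HeLa Kyoto cells synchronized by double thymidine or nocodazole block, proteins quantified by TMT10plex mass spectrometry, three independent biological replicates.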
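Wherever solubility change mitosis vs G1/S (difference of NP-40 vs SDS log2 ratios) is given: synchronized HeLa Kyoto cells (double thymidine block for G1/S, nocodazole release for mitosis), protein amounts in NP-40 versus SDS lysates quantified by mass spectrometry, three biological replicates.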
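Wherever solubility in G1/S (NP-40 vs SDS abundance) is given: HeLa Kyoto cells arrested at G1/S by double thymidine block, proteins quantified by TMT10plex mass spectrometry in mild NP-40 versus SDS extracts, three biological replicates.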
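Wherever thermal stability score vs G1/S (z-score of summed log2 fold changes over temperatures) is given: synchronized HeLa Kyoto cells, proteins quantified by TMT10plex mass spectrometry, three biological replicates, mitosis taken 0.5 h after nocodazole release, G1/S directly after double thymidine block.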

Sequence of PPIE (chain, as listed by the source): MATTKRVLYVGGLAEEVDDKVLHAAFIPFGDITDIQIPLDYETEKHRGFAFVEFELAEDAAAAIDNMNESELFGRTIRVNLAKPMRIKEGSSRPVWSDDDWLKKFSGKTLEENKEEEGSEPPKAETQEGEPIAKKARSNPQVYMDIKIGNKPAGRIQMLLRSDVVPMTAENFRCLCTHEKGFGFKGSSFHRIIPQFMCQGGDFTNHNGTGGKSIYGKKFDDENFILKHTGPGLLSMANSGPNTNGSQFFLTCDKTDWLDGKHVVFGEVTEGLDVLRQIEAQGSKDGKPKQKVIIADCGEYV

In the case of “MEESPLSRAPSRGGVNFLNVARTYIPNTKVECHYTLPPGTMPSASDWIGIFKVEAACVRDYHTFVWSSVPESTTDGSPIHTSVQFQASYLPKPGAQLYQFRYVNRQGQVCGQSPPFQFREPRPMDELVTLEEADGGSDILLVVPKATVLQNQLDESQQERNDLMQLKLQLEGQVTELRSRVQELERALATARQEHTELMEQYKGISRSHGEITEERDILSRQQGDHVARILELEDDIQTISEKVLTKEVELDRLRDTVKALTREQEKLLGQLKEVQADKEQSEAELQVAQQENHHLNLDLKEAKSWQEEQSAQAQRLKDKVAQMKDTLGQAQQRVAELEPLKEQLRGAQELAASSQQKATLLGEELASAAAARDRTIAELHRSRLEVAEVNGRLAELGLHLKEEKCQWSKERAGLLQSVEAEKDKILKLSAEILRLEKAVQEERTQNQVFKTELAREKDSSLVQLSESKRELTELRSALRVLQKEKEQLQEEKQELLEYMRKLEARLEKVADEKWNEDATTEDEEAAVGLSCPAALTDSEDESPEDMRLPPYGLCERGDPGSSPAGPREASPLVVISQPAPISPHLSGPAEDSSSDSEAEDEKSVLMAAVQSGGEEANLLLPELGSAFYDMASGFTVGTLSETSTGGPATPTWKECPICKERFPAESDKDALEDHMDGHFFFSTQDPFTFE [CALCOCO1]”, the values for the melting temperature in the series with HeLa Kyoto [1] (cell cycle stage: G1/S) and with HeLa Kyoto [1] (cell cycle stage: mitosis) were 50.2 °C and 50.3 °C, respectively. The “solubility change mitosis (log2)” value with HeLa Kyoto [2] was -0.128. In addition, the thermal stability score in the series on HeLa Kyoto [3] (setting [5]) was found to be 0.0224; in the series with HeLa Kyoto [3] (cell cycle stage: mitosis), 0.762. Further, in the series on HeLa Kyoto [4], the “solubility in G1/S (log2)” value was determined as 0.13.
As to “MRRAALRLCALGKGQLTPGRGLTQGPQNPKKQGIFHIHEVRDKLREIVGASTNWRDHVKAMEERKLLHSFLAKSQDGLPPRRMKDSYIEVLLPLGSEPELREKYLTVQNTVRFGRILEDLDSLGVLICYMHNKIHSAKMSPLSIVTALVDKIDMCKKSLSPEQDIKFSGHVSWVGKTSMEVKMQMFQLHGDEFCPVLDATFVMVARDSENKGPAFVNPLIPESPEEEELFRQGELNKGRRIAFSSTSLLKMAPSAEERTTIHEMFLSTLDPKTISFRSRVLPSNAVWMENSKLKSLEICHPQERNIFNRIFGGFLMRKAYELAWATACSFGGSRPFVVAVDDIMFQKPVEVGSLLFLSSQVCFTQNNYIQVRVHSEVASLQEKQHTTTNVFHFTFMSEKEVPLVFPKTYGESMLYLDGQRHFNSMSGPATLRKDYLVEP [ACOT9]”, the melting temperature with HeLa Kyoto [1] (cell cycle stage: G1/S) is 52.9 °C; in the series on HeLa Kyoto [1] (cell cycle stage: mitosis) it was 53.7 °C. For the same substance, the “solubility change mitosis (log2)” value with HeLa Kyoto [2] was -0.0152. Besides, the results for the thermal stability score in the series with HeLa Kyoto [3] (setting [5]) and with HeLa Kyoto [3] (cell cycle stage: mitosis) were -1.25 and 1.48, respectively. Moreover, the “solubility in G1/S (log2)” value in the series on HeLa Kyoto [4] was -0.111.
Take “MTSAAPAKKPYRKAPPEHRELRLEIPGSRLEQEEPLTDAERMKLLQEENEELRRRLASATRRTEALERELEIGQDCLELELGQSREELDKFKDKFRRLQNSYTASQRTNQELEDKLHTLASLSHSWIFAIKKAEMDRKTLDWEIVELTNKLLDAKNTINKLEELNERYRLDCNLAVQLLKCNKSHFRNHKFADLPCELQDMVRKHLHSGQEAASPGPAPSLAPGAVVPTSVIARVLEKPESLLLNSAQSGSAGRPLAEDVFVHVDMSEGVPGDPASPPAPGSPTPQPNGECHSLGTARGSPEEELPLPAFEKLNPYPTPSPPHPLYPGRRVIEFSEDKVRIPRNSPLPNCTYATRQAISLSLVEEGSERARPSPVPSTPASAQASPHHQPSPAPLTLSAPASSASSEEDLLVSWQRAFVDRTPPPAAVAQRTAFGRDALPELQRHFAHSPADRDEVVQAPSARPEESELLLPTEPDSGFPREEEELNLPISPEEERQSLLPINRGTEEGPGTSHTEGRAWPLPSSSRPQRSPKRMGVHHLHRKDSLTQAQEQGNLLN [TJAP1]”: the results for the melting temperature in the series with HeLa Kyoto [1] (cell cycle stage: G1/S) and with HeLa Kyoto [1] (cell cycle stage: mitosis) were 51.1 °C and 51.7 °C, respectively. In addition, the “solubility change mitosis (log2)” value in the series on HeLa Kyoto [2] is -0.036. Besides, the thermal stability score worked out at 1.77 in the series with HeLa Kyoto [3] (setting [5]) and 3.57 with HeLa Kyoto [3] (cell cycle stage: mitosis). The “solubility in G1/S (log2)” value in the series with HeLa Kyoto [4] was 0.288.
Consider PPIE, for which the melting temperature with HeLa Kyoto [1] (cell cycle stage: G1/S) worked out at 49 °C; in the series on HeLa Kyoto [1] (cell cycle stage: mitosis) it was 51.7 °C. Besides, the “solubility change mitosis (log2)” value with HeLa Kyoto [2] was 0.13. Besides, the thermal stability score was 1.18 with HeLa Kyoto [3] (setting [5]) and 2.29 with HeLa Kyoto [3] (cell cycle stage: mitosis). In addition, in the series on HeLa Kyoto [4], the “solubility in G1/S (log2)” value amounted to 0.351.
For “MKENKENSSPSVTSANLDHTKPCWYWDKKDLAHTPSQLEGLDPATEARYRREGARFIFDVGTRLGLHYDTLATGIIYFHRFYMFHSFKQFPRYVTGACCLFLAGKVEETPKKCKDIIKTARSLLNDVQFGQFGDDPKEEVMVLERILLQTIKFDLQVEHPYQFLLKYAKQLKGDKNKIQKLVQMAWTFVNDSLCTTLSLQWEPEIIAVAVMYLAGRLCKFEIQEWTSKPMYRRWWEQFVQDVPVDVLEDICHQILDLYSQGKQQMPHHTPHQLQQPPSLQPTPQVPQVQQSQPSQSSEPSQPQQKDPQQPAQQQQPAQQPKKPSPQPSSPRQVKRAVVVSPKEENKAAEPPPPKIPKIETTHPPLPPAHPPPDRKPPLAAALGEAEPPGPVDATDLPKVQIPPPAHPAPVHQPPPLPHRPPPPPPSSYMTGMSTTSSYMSGEGYQSLQSMMKTEGPSYGALPPAYGPPAHLPYHPHVYPPNPPPPPVPPPPASFPPPAIPPPTPGYPPPPPTYNPNFPPPPPRLPPTHAVPPHPPPGLGLPPASYPPPAVPPGGQPPVPPPIPPPGMPPVGGLGRAAWMR [CCNK]”, the values for the melting temperature with HeLa Kyoto [1] (cell cycle stage: G1/S) and in the series with HeLa Kyoto [1] (cell cycle stage: mitosis) were 52.9 °C and 52 °C, respectively. Moreover, the “solubility change mitosis (log2)” value with HeLa Kyoto [2] is 0.0659. Besides, the thermal stability score stood at 0.297 in the series with HeLa Kyoto [3] (setting [5]) and 1.83 with HeLa Kyoto [3] (cell cycle stage: mitosis). In addition, in the series on HeLa Kyoto [4], the “solubility in G1/S (log2)” value is -0.035.
Regarding NF1, the results for the melting temperature in the series on HeLa Kyoto [1] (cell cycle stage: G1/S) and with HeLa Kyoto [1] (cell cycle stage: mitosis) were 49.7 °C and 50.4 °C, respectively. Also, the “solubility change mitosis (log2)” value in the series on HeLa Kyoto [2] is -0.137. Besides, the results for the thermal stability score in the series with HeLa Kyoto [3] (setting [5]) and with HeLa Kyoto [3] (cell cycle stage: mitosis) were -0.998 and -0.184, respectively. Besides, in the series on HeLa Kyoto [4], the “solubility in G1/S (log2)” value is -0.315.
As to “MSTNGDDHQVKDSLEQLRCHFTWELSIDDDEMPDLENRVLDQIEFLDTKYSVGIHNLLAYVKHLKGQNEEALKSLKEAENLMQEEHDNQANVRSLVTWGNFAWMYYHMGRLAEAQTYLDKVENICKKLSNPFRYRMECPEIDCEEGWALLKCGGKNYERAKACFEKVLEVDPENPESSAGYAISAYRLDGFKLATKNHKPFSLLPLRQAVRLNPDNGYIKVLLALKLQDEGQEAEGEKYIEEALANMSSQTYVFRYAAKFYRRKGSVDKALELLKKALQETPTSVLLHHQIGLCYKAQMIQIKEATKGQPRGQNREKLDKMIRSAIFHFESAVEKKPTFEVAHLDLARMYIEAGNHRKAEENFQKLLCMKPVVEETMQDIHFHYGRFQEFQKKSDVNAIIHYLKAIKIEQASLTRDKSINSLKKLVLRKLRRKALDLESLSLLGFVYKLEGNMNEALEYYERALRLAADFENSVRQGP [IFIT1]”, the results for the melting temperature in the series on HeLa Kyoto [1] (cell cycle stage: G1/S) and in the series on HeLa Kyoto [1] (cell cycle stage: mitosis) were 49.1 °C and 48.3 °C, respectively. Also, the “solubility change mitosis (log2)” value in the series on HeLa Kyoto [2] was -0.063. Moreover, the thermal stability score was found to be 1.47 with HeLa Kyoto [3] (setting [5]) and 2.07 in the series with HeLa Kyoto [3] (cell cycle stage: mitosis). Also, the “solubility in G1/S (log2)” value in the series with HeLa Kyoto [4] came to 0.322.
